Article PMC8091981 (Genes & Development, 2021)

Target: T1, Spt6-YW-FLAG (Y255A, W257A) (S. cerevisiae, UniProt P23615 1-1451, Y255A | W257A)
T1 sequence (looked up): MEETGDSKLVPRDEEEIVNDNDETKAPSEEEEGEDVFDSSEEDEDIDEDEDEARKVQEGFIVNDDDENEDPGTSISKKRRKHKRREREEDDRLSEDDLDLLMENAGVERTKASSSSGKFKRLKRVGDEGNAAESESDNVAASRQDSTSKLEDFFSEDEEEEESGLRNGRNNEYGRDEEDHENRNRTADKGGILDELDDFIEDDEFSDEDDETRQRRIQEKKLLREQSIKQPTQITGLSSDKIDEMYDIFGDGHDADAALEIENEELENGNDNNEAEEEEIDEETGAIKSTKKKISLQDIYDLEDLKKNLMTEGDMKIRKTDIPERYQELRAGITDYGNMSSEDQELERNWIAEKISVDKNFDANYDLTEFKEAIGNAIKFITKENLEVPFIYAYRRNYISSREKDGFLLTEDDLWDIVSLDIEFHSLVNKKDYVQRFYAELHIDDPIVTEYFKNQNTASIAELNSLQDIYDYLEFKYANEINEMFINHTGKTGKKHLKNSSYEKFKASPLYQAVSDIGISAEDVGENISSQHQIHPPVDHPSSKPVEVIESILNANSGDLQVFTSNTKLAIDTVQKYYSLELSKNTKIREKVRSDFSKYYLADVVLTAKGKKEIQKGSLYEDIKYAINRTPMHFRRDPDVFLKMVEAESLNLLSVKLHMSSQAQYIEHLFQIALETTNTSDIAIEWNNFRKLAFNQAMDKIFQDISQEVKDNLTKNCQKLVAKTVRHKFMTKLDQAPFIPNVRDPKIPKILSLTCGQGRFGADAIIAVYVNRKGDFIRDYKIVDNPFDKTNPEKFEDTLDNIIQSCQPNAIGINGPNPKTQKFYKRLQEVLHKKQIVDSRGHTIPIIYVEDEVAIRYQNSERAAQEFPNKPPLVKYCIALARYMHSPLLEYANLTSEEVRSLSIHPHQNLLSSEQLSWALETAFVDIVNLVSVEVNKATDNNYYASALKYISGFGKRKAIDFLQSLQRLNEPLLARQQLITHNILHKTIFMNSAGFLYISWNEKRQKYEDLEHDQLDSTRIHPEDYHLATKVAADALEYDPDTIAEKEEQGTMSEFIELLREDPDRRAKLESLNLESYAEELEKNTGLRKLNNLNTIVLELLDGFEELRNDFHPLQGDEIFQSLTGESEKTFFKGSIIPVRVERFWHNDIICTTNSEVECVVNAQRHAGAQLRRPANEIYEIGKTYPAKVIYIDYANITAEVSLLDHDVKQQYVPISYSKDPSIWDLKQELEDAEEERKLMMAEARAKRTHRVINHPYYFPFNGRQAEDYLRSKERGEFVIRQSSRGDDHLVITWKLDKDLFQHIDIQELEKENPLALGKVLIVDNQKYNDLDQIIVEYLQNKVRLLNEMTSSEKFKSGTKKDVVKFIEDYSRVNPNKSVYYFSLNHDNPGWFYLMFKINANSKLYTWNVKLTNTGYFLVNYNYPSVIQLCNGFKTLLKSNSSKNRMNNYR
Experiment: co-IP

B1: Spn1 (natural protein, S. cerevisiae, UniProt Q06505 1-410, looked up)
chain: MSTADQEQPKVVEATPEDGTASSQKSTINAENENTKQNQSMEPQETSKGTSNDTKDPDNGEKNEEAAIDENSNVEAAERKRKHISTDFSDDDLEKEEHNDQSLQPTVENRASKDRDSSATPSSRQELEEKLDRILKKPKVRRTRRDEDDLEQYLDEKILRLKDEMNIAAQLDIDTLNKRIETGDTSLIAMQKVKLLPKVVSVLSKANLADTILDNNLLQSVRIWLEPLPDGSLPSFEIQKSLFAALNDLPVKTEHLKESGLGRVVIFYTKSKRVEAQLARLAEKLIAEWTRPIIGASDNYRDKRIMQLEFDSEKLRKKSVMDSAKNRKKKSKSGEDPTSRGSSVQTLYEQAAARRNRAAAPAQTTTDYKYAPVSNLSAVPTNARAVGVGSTLNNSEMYKRLTSRLNKKHK
- fold decrease of co-IP against wild-type Spt6-FLAG: 20 fold
